# Measurements taken from patent publication US20240043504A1 (published 2024).
# Changes are numbered by the printed parent chain. Values joined by “and” are separate entries in the source; they are usually repeats but may differ in a detail not shown here. Identical values can stand only once.
# B1: mAb10964 (antibody, V domains shown)
# VH: QVQLQESGPGLVKPSETLSLTCTVSGGSINNYYWIWIRQPPGKGLEWIGYIYHSGSTNYNPSLKSRVTISVDTSKNQFSLKVSSVTAADTAVYYCANMVRGVYEDDYWGQGTLVTVSS
# VL: DIQMTQSPSSLSASVGDRVTITCRASQSISNYLNWYQQKPGKAPKLLIFAASSLRSGVPSRFSGSGSGTDFTLTISSLHPEDFATYYCQQNYNTPLTFGPGTKVDIKR
# B2: mAb10969 (antibody, V domains shown)
# VH: QVQLVESGGGVVQPGRSLRLSCAASGFTFSSYAMHWVRQAPGKGLEWVAVISYDGSNKYYADSVKGRFTISRDNSKNTLYLQMNSLRAEDTAVYYCARDGRTITMVRGVIDDAFDIWGQGTMVTVSS
# VL: not shown
# B3: mAb10984 (antibody, V domains shown)
# VH: EVQLVESGGGLVQPGGSLRLSCAASGLTVNRNYMSWVRQAPGKGLEWVSLIYSGGSTYYADSVKGRFTISRDNSKNTLYLQMNSLRLEDTAVYYCARGELGIPYGMDVWGQGTTVTVSS
# VL: QSVLTQPPSVSAAPGQKVTISCSGSSSNIGNNYVSWYQQLPGTAPKLLIYDNNKRPSGIPDRFSGSKSGTSATLGITGLQTGDEADYYCGTWDSSLSAGVFGGGTKLTVLG
# B4: mAb10965 (antibody, V domains shown)
# VH: EVQLVESGGGLIQPGGSLRLSCAASVFTVSYNYMSWVRQAPGKGLEWVSVIYSGGSTYYADSVKGRFTISRDNSKNTLYLQMNSLRAEDTAVYYCARALPGWGGSFEYFDYWGQGTLVTVSS
# VL: not shown
# B5: mAb10966 (antibody, V domains shown)
# VH: EVQLVESGGGLVQPGGSLRLSCAASGLTVSSNYMSWVRQAPGKGLEWVSVIYSGGSTFYADSVKGRFTISRDNSKNTLYLQMNSLRPEDTAVYYCAREGRIAATGYGMDVWGQGTTVTVSS
# VL: not shown
# B6: mAb10971 (antibody, V domains shown)
# VH: EVQLVESGGGLIQPGGSLRLSCAASGVTVSSNYMSWVRQAPGKGLEWVSVIYSGGSTFYSDSVKGRFSISRDNSKNTLYLQMNSLRAEDTAVYYCARDLYYYGMDVWGQGTTVTVSS
# VL: DIQLTQSPSFLSASVGDRVTITCRASQGISTYLAWYQQKPGKAPKLLIYAASTLQSGVPSRFSGSGSGTEFTLTISSLQPEDFATYYCQQLDSYPGLTFGGGTKVEIKR
# B7: mAb11010 (antibody, V domains shown)
# VH: QVQLVESGGGVVQPGRSLRLSCAASGFTFSSYGMHWVRQAPGKGLEWVAVISYDGSYKYYADSVKGRFTISRDNSKNTLYLQMNSLRAEDTAVYYCAIDGGTVTTIFDYWGQGTLVTVSS
# VL: not shown
# B8: mAb11006 (antibody, V domains shown)
# VH: EVQLVESGGGLVQPGGSLRLSCAASGFIVSRNYMSWVRQAPGKGLEWVSVIYSGGSTFYADSVKGRFTISRHNSKNTLYLQMNSLKAEDTAVYYCARELRGYFDYWGQGTLVTVSS
# VL: DIQLTQSPSFLSASVGDRVTITCWASQGISSYLAWYQQKPGKAPKLLIYAASTLQSGVPSRFSGSGSGTEFTLTISSLQPEDFATYYCQLLNSYPYTFGQGTKLEIKR
# B9: mAb11008 (antibody, V domains shown)
# VH: EVQLVESGGGLVQPGGSLRLSCAASGFTVSSNYMTWVRQAPGKGLEWVSVIYSGGSTFYADSVKGRFTISRHNSENTLYLQMNSLRAEDTAVYYCARDLAAAGTDYWGQGALVTVSS
# VL: B8 VL with E81D, L90H, P95L
# B10: mAb10967 (antibody, V domains shown)
# VH: EVQLVESGGGLVQPGGSLRLSCAASGFTVSSNYMSWVRQAPGKGLEWVSVIYPGGSTFYADSVKGRFTISRDNSKNTLYLQMNSLRAEDTAVYYCARDQRDFAWGQGTLVTVSS
# VL: DIQMTQSPSSLSASVGDRVTITCQASQDISNYLNWYQQKPGKAPKLLIYDASNLETGVPSRFSGSGSGTDFTFTISGLQPEDIATYYCQQYDNLPPTFGQGTRLEIKR
# B11: mAb10998 (antibody, V domains shown)
# VH: EVQLVESGGGLVHPGGSLRLSCAASGLTVSSNYMSWVRQAPGKGLEWVSVIYSGGSTYYADSVKGRFTISRHNSKNTLFLQMNSLRAEDTAVYYCARDRPITGTTLDVWGQGTTVTVSS
# VL: DIQMTQSPSSLFASVGDRVTITCRASQSISSYLNWYQQKPGKAPKLLIYAASSLQSGVPSRFSGSGSGTDFTLTISSLQPEDFAFYYCQQTYSTPPITFGQGTRLEIKR
# B12: mAb10982 (antibody, V domains shown)
# VH: EVQLVESGGGLVQPGGSLRLSCAASGLTVSSNYMSWVRQAPGKGLEWVSVIYSGGTTYYADSVKGRFTISRHNSKNTLSLQMNSLRAEDTAVYYCARGEGANYYGMDVWGQGTTVTVSS
# VL: QSVLTQPPSVSGAPGQRVTISCTGSSSNIGTGYDVHWYQQLPGTAPKLLIYGNSNRPSGVPDRFSGSKSGTSASLAITGLQAEDEADYYCQSYDSSLSGYVVFGGGTKLTVLG
# B13: mAb10985 (antibody, V domains shown)
# VH: EVQLVESGGGLVQPGRSLRLSCAASGFTFDDYAMHWVRQAPGKGLEWVSGISWNRGSIGYADSVKGRFTISRDNAKNSLYLQMSSLRAEDTALYYCAKDGERWDSVVVPSARNGMDVWGQGTTVTVSS
# VL: B12 VL with T31A, Y100S, V101Y, G105T, L109V
# B14: mAb10986 (antibody, V domains shown)
# VH: EVQLVESGGGLVQPGGSLRLSCAASEFTVSSNYMSWVRQAPGKGLEWVSVIYSGGSTFYADSVKGRFTISRDNSKNTLYLQMNSLRAEDTAVYYCARALPYGDLHFDYWGQGTLVTVSS
# VL: B12 VL with S54T, G99D, Y100S, V101Y, G105T, L109V
# B15: mAb10964 (antibody, V domains shown)
# VH: B1 VH
# VL: B1 VL
# B16: mAb10969 (antibody, V domains shown)
# VH: B2 VH
# VL: not shown
# B17: mAb10965 (antibody, V domains shown)
# VH: B4 VH
# VL: not shown
# B18: mAb10966 (antibody, V domains shown)
# VH: B5 VH
# VL: not shown
# B19: mAb10989 (antibody, V domains shown)
# VH: QVQLVQSGAEVKKPGASVKVSCKASGYIFTGYYMHWVRQAPGQGLEWMGWINPNSGGANYAQKFQGRVTLTRDTSITTVYMELSRLRFDDTAVYYCARGSRYDWNQNNWFDPWGQGTLVTVSS
# VL: QSALTQPASVSGSPGQSITISCTGTSSDVGTYNYVSWYQQHPGKAPKLMIFDVSNRPSGVSDRFSGSKSGNTASLTISGLQAEDEADYYCSSFTTSSTVVFGGGTKLTVLG
# B20: mAb10971 (antibody, V domains shown)
# VH: B6 VH
# VL: B6 VL
# B21: mAb10967 (antibody, V domains shown)
# VH: B10 VH
# VL: B10 VL
# B22: mAb10954 (antibody, V domains shown)
# VH: EVQLVESGGGLVQPGGSLRLSCAASGITVSSNYMSWVRQAPGKGLEWVSLIYSGGSTYYADSVKGRFTISRDNSKNTLYLQMNSLRVEDTAVYYCARDHGMAAAGYNYWGQGTLVTVSS
# VL: B10 VL with S30N, N31K, S76N, G77S, I83F, Y87F, T97A, R103K, L104V
# B23: mAb10955 (antibody, V domains shown)
# VH: EVQLVESGGGLVQPGGSLRVSCAASGFTVSRNYMSWVRQAPGKGLEWVSVIYSGGSTFYADSVKGRFTISRDNSKNTLYLQMNSLRAEDTAIYYCARYIPRFDPWGQGTLVTVSS
# VL: B10 VL with Y36F, K42R, G77S, P96I
# B24: mAb10939 (antibody, V domains shown)
# VH: EVQLVESGGGLVQPGGSLRLSCAASGLTVSSNYMNWVRQVPGKGLEWVSVIYSGGSKFYVDSVKGRFTISRHNSKNTLYLQMNSLRPEDTAVYYCTRDAQYYGMDVWGQGTTVTVSS
# VL: B11 VL with F12S, S31T, N34H, K42E, F85T, T91S, I97E, T98I, R104K
# B25: mAb10932 (antibody, V domains shown)
# VH: EVQLVESGGGLVQSGGSLRLSCAASGLTVSSNYMSWVRQAPGKGLEWVSVIYSGGSTFYSDSVKGRFTISRHNSKNTLYLQMNSLRAEDTAVYYCARARGDAFDIWGQGTMVTVSS
# VL: not shown
# Target: receptor binding domain (RBD) portion of the SARS-CoV-2 Spike protein (amino acids Arg319-Phe541) ex (SARS-CoV-2)
# Assay: not given
row,Binder,IC50
1,B1,0.0683 nM and 0.0625 nM
2,B2,0.215 nM
3,B3,0.0775 nM
4,B4,0.213 nM
5,B5,0.16 nM
6,B6,0.149 nM
7,B7,0.147 nM
8,B8,0.22 nM
9,B9,1.49 nM
10,B10,0.28 nM
11,B11,4.3 nM
12,B12,0.116 nM
13,B13,0.0696 nM and 0.0411 nM
14,B14,0.0754 nM

# Target: SARS-CoV-2 Spike Protein (RBD)(R319-F541).mFc (SARS-CoV-2)
# Assay: Luminex, supernatant
row,Binder,MFI [MFI]
1,B15,32400
2,B16,31400
3,B17,27100
4,B18,30400
5,B19,19600
6,B20,28700
7,B21,29600
8,B22,31300
9,B23,30800
10,B24,33900
11,B25,30600

# Target: SARS-CoV-2 Spike Protein (RBD)(R319-F541).hFc (SARS-CoV-2)
# Assay: Luminex, supernatant
row,Binder,MFI [MFI]
1,B15,33100
2,B17,29600
3,B18,30800
4,B19,22400
5,B20,30000
6,B21,28700
7,B22,31800
8,B23,31200
9,B24,32900
10,B25,30600
